Laboratory results taken from publication doi:10.1101/203372.

Molecular target: HDAC6-EGFP WT (full-length human histone deacetylase 6 fused to EGFP) (human) (UniProt Q9UBN7)
Test: MST

Chain of HDAC6-EGFP WT (full-length human histone deacetylase 6 fused to EGFP) (human) (Q9UBN7 whole entry, the tested form may be a part): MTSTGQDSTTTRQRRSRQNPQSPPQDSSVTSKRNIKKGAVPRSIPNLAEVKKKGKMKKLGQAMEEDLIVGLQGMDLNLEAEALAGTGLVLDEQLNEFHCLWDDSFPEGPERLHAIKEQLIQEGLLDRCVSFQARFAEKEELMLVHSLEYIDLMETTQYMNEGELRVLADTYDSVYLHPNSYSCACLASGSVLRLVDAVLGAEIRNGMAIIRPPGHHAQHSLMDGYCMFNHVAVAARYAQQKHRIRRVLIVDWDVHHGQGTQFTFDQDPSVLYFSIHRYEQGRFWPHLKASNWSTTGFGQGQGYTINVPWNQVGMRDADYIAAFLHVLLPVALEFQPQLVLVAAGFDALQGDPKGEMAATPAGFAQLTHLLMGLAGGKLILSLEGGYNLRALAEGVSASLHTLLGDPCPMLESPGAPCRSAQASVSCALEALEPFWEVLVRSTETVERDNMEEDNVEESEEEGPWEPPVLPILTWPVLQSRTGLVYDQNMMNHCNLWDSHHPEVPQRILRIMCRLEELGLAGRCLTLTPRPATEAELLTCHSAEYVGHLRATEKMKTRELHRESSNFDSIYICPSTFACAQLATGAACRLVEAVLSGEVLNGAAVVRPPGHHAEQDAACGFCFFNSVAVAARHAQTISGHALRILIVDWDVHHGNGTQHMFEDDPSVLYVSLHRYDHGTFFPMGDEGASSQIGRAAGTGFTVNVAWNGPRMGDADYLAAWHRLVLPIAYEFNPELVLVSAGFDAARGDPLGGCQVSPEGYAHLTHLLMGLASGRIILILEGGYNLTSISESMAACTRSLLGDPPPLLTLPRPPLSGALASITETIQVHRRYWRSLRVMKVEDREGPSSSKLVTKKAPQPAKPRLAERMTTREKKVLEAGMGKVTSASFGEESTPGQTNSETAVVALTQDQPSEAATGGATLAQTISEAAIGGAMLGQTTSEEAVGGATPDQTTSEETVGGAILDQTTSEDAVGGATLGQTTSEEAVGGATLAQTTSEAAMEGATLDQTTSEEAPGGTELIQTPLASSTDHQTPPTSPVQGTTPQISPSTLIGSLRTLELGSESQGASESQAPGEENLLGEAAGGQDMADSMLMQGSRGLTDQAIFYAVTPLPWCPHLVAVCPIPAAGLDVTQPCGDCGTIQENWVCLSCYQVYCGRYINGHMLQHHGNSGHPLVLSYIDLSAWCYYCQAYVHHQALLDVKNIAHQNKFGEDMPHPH
Chain of NEDD8, human, recombinant, His-tag (Q15843 1-76): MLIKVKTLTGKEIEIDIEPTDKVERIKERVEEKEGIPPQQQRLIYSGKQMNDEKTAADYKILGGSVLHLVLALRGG

NEDD8, human, recombinant, His-tag (from UniProt Q15843 1-76) (natural protein)
fold lower affinity than mono-Ub: 50 fold

K63-linked tetra-Ub (from UniProt P0CG48)
fold higher affinity than mono-Ub: 4 fold
